Where two headings read alike, the source gives them in different places.
How the values were obtained:
[1] = test system: P. aeruginosa strain WC-453; assay: Time-kill assay in HEPES or CAA with 25% human serum (Tables 7, 8); type: cell-based, Pseudomonas aeruginosa
Protocol: Exponential phase bacteria were then pelleted and resuspended in 1/5 culture volume of 25 mM HEPES, pH 7.4 before a final adjustment to an optical density corresponding to a McFarland value of 0.5. […] All treatments were incubated at 37° C. with aeration. At time points before the addition of lysin (or buffer control) and at 1 hour and 3 hours intervals thereafter, culture samples were removed for quantitative plating on CAA agar plates.

[2] = test system: P. aeruginosa isolates; assay: MIC against a range of isolates in CAA + […] human serum (Table 11); type: cell-based, Pseudomonas aeruginosa
[3] = test system: outer membrane of P. aeruginosa (CFS 1292); assay: N-phenyl-1-napthylamine (NPN) uptake assay, outer membrane destabilization (Table 15); type: cell-based, Pseudomonas aeruginosa; details: NPN fluorescence, buffer = 100, lysin 100 μg/well
Protocol: The ability of gram-negative lysins to destabilize the outer membrane of P. aeruginosa was evaluated through the use of an N-phenyl-1-napthylamine (NPN) uptake assay. […] NPN was added to a final concentration of […]. […] Changes in fluorescence were recorded (excitation 1=350 nm; emission 1=420 nm) over two hours.

[4] = test system: P. aeruginosa strains; assay: Checkerboard synergy with meropenem in 25% CAA and […] human serum (Table 16); type: cell-based, Pseudomonas aeruginosa; details: for FICI value (Run #1), with meropenem / FICI value (Run #2), with meropenem: 25% CAA and […] human serum
[5] = test system: carbapenem-resistant P. aeruginosa strains; assay: Resensitization of carbapenem-resistant strains, combinations with imipenem or meropenem (Tables 18-22); type: cell-based, Pseudomonas aeruginosa; details: for FICI: isolate WC-452
[6] = test system: P. aeruginosa isolate CFS 1558 (PA20); type: in vivo; details: for Log10 CFU/g of vegetation: rabbit lung
Protocol: A rabbit pulmonary model was used to assess the efficacy of the GN370 lysin alone and in combination with an antibiotic (meropenem). Initially, rabbits were infected intratracheally with P. aeruginosa isolate CFS 1558 (PA20) (3×10^9 CFU). Treatment commenced 6 hours post-infection.

[7] = test system: P. aeruginosa (PA20); assay: Rabbit infective endocarditis model (Tables 28-32, FIGS. 5-8); type: in vivo, Pseudomonas aeruginosa in rabbits
Protocol: Initially, a polyethylene catheter was placed into the rabbits' right ventricle and secured. 48 hours after catheter placement, rabbits were infected intravenously with P. aeruginosa (PA20) (6×10^9 CFU/mL). Treatment commenced 24 hours post-infection.
Data were analyzed using the Kruskal-Wallis method for multiple comparison and then adjusted with a false discovery rate approach (Benjamini-Hochberg method), using StatsDirect Software. A p-value of <0.05 was considered statistically significant.

[8] = test system: P. aeruginosa PA20; assay: MIC of GN370 and meropenem against the infecting strain; type: cell-based, Pseudomonas aeruginosa
[9] = single dose of GN370 + meropenem

B1: GN370: lysin-AMP construct: MIDR, FIRL and NPTH moieties N-terminal to GN202 lysin (SEQ ID NO: 44) (protein)
chain: MIDRFIRLNPTHGPRRPRRPGRRAPVRTSQRGIDLIKSFEGLRLSAYQDSVGVWTIGYGTTRGVTRYMTITVEQAERMLSNDIQRFEPELDRLAKVPLNQNQWDALMSFVYNLGAANLASSTLLDLLNKGDYQGAADQFPHWVNAGGKRLDGLVKRRAAERALFLEPLS
For B1, which “bactericidal activity (CFU decrease of 3-Log10, 3 hours after the addition of lysin)” value ([1]; 10 μg/mL, enumerated lysins in CAA/HuS, general statement for HEPES and CAA/HuS) is on record?
Its value is “bactericidal activity”.

What about the “CAA/HuS (Log10 CFU/mL), 1 hr” value ([1]; CAA + 25% human serum, lysin 10 μg/ml, 1 hr, WC-453) of the same molecule?
The value was 4.0 Log10 CFU/mL.

And the “CAA/HuS (Log10 CFU/mL), 3 hr” value ([1]; CAA + 25% human serum, lysin 10 μg/ml, 3 hr, WC-453)?
Its value is under 3.7 Log10 CFU/mL.

What about the “activity against P. aeruginosa isolates in human serum or SURVANTA” value ([2]; Tables 11 and 12) of the same molecule?
Its value is “active against a variety of P. aeruginosa isolates”.

And the “MIC, CAA + […] Human Serum” value ([2]; strain CFS 1109 (ATCC 17646))?
Its value is 1 µg/mL.

And the “MIC, CAA + […] Human Serum” value ([2]; strain CFS 1292)?
Its value is 2 µg/mL.

And the “MIC, CAA + […] Human Serum” value ([2]; strain CFS1539 (PA1))?
The value was 1 µg/mL.

What about the “MIC, CAA + […] Human Serum” value ([2]; strain CFS 1540 (PA2)) of the same molecule?
Its value is 1 µg/mL.

What about the “MIC, CAA + […] Human Serum” value ([2]; strain CFS 1541 (PA3)) of the same molecule?
The value was 1 µg/mL.

And the “MIC, CAA + […] Human Serum” value ([2]; strain CFS 1557 (PA19))?
Its value is 4 µg/mL.

What about the “MIC, CAA + […] Human Serum” value ([2]; strain CFS 1558 (PA20)) of the same molecule?
Its value is 0.5 µg/mL.

What about the “MIC, CAA + […] Human Serum” value ([2]; strain CFS 1559 (PA21)) of the same molecule?
Its value is 2 µg/mL.

What about the “MIC, CAA + […] Human Serum” value ([2]; strain CFS 1560 (PA22)) of the same molecule?
The value was 2 µg/mL.

And the “MIC, CAA + […] Human Serum” value ([2]; strain CFS 1561 (PA23))?
The value was 2 µg/mL.

What about the “MIC, CAA + […] Human Serum” value ([2]; strain CFS 1562 (PA24)) of the same molecule?
Its value is 2 µg/mL.

What about the “MIC, CAA + […] Human Serum” value ([2]; strain CFS 1596 (PA26)) of the same molecule?
Its value is 1 µg/mL.

What about the “MIC, CAA + […] Human Serum” value ([2]; strain CFS 1597 (PA27)) of the same molecule?
The value was 0.5 µg/mL.

And the “MIC, CAA + […] Human Serum” value ([2]; strain CFS 1669 (PA41))?
The value was 2 µg/mL.

What about the “MIC, CAA + […] Human Serum” value ([2]; strain CFS 1674 (PA46)) of the same molecule?
Its value is 2 µg/mL.

And the “MIC, CAA + […] Human Serum” value ([2]; strain CFS 1675 (PA47))?
Its value is 1 µg/mL.

What about the “MIC, CAA + […] Human Serum” value ([2]; strain CFS 1766 (ATCC 27853)) of the same molecule?
Its value is 4 µg/mL.

And the “% RFU” value ([3]; 5 minutes)?
The value was 205 % RFU.

What about the “% RFU” value ([3]; 10 minutes) of the same molecule?
The value was 217 % RFU.

What about the “% RFU” value ([3]; 20 minutes) of the same molecule?
Its value is 213 % RFU.

What about the “% RFU” value ([3]; 40 minutes) of the same molecule?
The value was 198 % RFU.

What about the “% RFU” value ([3]; 60 minutes) of the same molecule?
The value was 193 % RFU.

And the “% RFU” value ([3]; 100 minutes)?
Its value is 184 % RFU.

And the synergy with meropenem ([4]; FICI less than or equal to 0.5 = potent synergy)?
The synergy with meropenem was “exhibited synergy with meropenem”.

What about the “FICI value (Run #1), with meropenem” value ([4]; strain CFS 1292) of the same molecule?
Its value is 0.1875.

What about the “FICI value (Run #2), with meropenem” value ([4]; strain CFS 1292) of the same molecule?
The value was 0.219.

And the “FICI value (Run #1), with meropenem” value ([4]; strain CFS 1557 (PA19))?
Its value is 0.1875.

And the “FICI value (Run #2), with meropenem” value ([4]; strain CFS 1557 (PA19))?
The value was 0.240.

What about the “FICI value (Run #1), with meropenem” value ([4]; strain CFS 1558 (PA20)) of the same molecule?
The value was 0.09375.

What about the “FICI value (Run #2), with meropenem” value ([4]; strain CFS 1558 (PA20)) of the same molecule?
Its value is 0.109.

And the “FICI value (Run #2), with meropenem” value ([4]; strain CFS 1559 (PA21))?
The value was 0.438.

And the “FICI value (Run #2), with meropenem” value ([4]; strain CFS 1560 (PA22))?
Its value is 0.198.

And the “FICI value (Run #2), with meropenem” value ([4]; strain CFS 1561 (PA23))?
The value was 0.240.

And the “FICI value (Run #2), with meropenem” value ([4]; strain CFS 1562 (PA24))?
The value was 0.240.

What about the “FICI value (Run #2), with meropenem” value ([4]; strain CFS 1766 (ATCC 27853)) of the same molecule?
The value was 0.156.

What about the “resensitization to carbapenems in synergistic combinations” value ([5]; imipenem (IPM) and meropenem (MEM), carbapenem-resistant isolates) of the same molecule?
Its value is “reductions of IPM and MEM MICS to below breakpoint values”.

And the FICI ([5]; lysin + imipenem)?
The FICI was 0.094.

And the FICI ([5]; lysin + meropenem)?
Its FICI is 0.125.

What about the “Antibiotic MIC / Lysin MIC, Alone” value ([5]; vs. WC-452 (Table 22)) of the same molecule?
The value was 2.

What about the “Bacterial burden, Kidneys” value ([6]; GN370 3 mg/kg) of the same molecule?
The value was 5.06 ± 1.05 log10 CFU/g.

And the “Bacterial burden, Lung 1” value ([6]; GN370 3 mg/kg)?
Its value is 6.28 ± 1.12 log10 CFU/g.

And the “Bacterial burden, Lung 2” value ([6]; GN370 3 mg/kg)?
The value was 6.43 ± 1.01 log10 CFU/g.

What about the “Bacterial burden, Spleen” value ([6]; GN370 3 mg/kg) of the same molecule?
Its value is 5.23 ± 1.25 log10 CFU/g.

What about the “Bacterial burden, Kidneys” value ([6]; GN370 10 mg/kg) of the same molecule?
The value was 3.46 ± 0.78 log10 CFU/g.

And the “Bacterial burden, Lung 1” value ([6]; GN370 10 mg/kg)?
The value was 6.63 ± 1.00 log10 CFU/g.

What about the “Bacterial burden, Lung 2” value ([6]; GN370 10 mg/kg) of the same molecule?
Its value is 5.53 ± 1.75 log10 CFU/g.

And the “Bacterial burden, Spleen” value ([6]; GN370 10 mg/kg)?
The value was 3.76 ± 0.44 log10 CFU/g.

And the “reduction in CFUs in the lungs” value ([6]; GN370 alone, increasing concentrations, compared to pretreatment control)?
Its value is 4 log10.

What about the “additional decrease of bacterial density in lung, kidney and spleen” value ([6]; GN-370 (10 mg/kg) in addition to meropenem, compared to meropenem or GN-370 alone) of the same molecule?
The value was 2 log10 CFU/g.

What about the “decrease of mean bacterial density in lungs” value ([6]; agent alone, compared to the starting CFU and the vehicle control group) of the same molecule?
Its value is “about 2 log10 CFU/g”.

What about the “Log10 CFU/g of vegetation” value ([6]; GN370 3 mg/kg) of the same molecule?
Its value is 6.52 ± 1.01 Log10 CFU/g.

What about the “Log10 CFU/g of vegetation” value ([6]; GN370 10 mg/kg) of the same molecule?
Its value is 6.25 ± 1.35 Log10 CFU/g.

What about the “Log10 CFU/g of vegetation” value ([6]; GN370 30 mg/kg) of the same molecule?
Its value is 7.88 ± 0.50 Log10 CFU/g.

And the “tolerability in infected rabbits” value ([6]; tested doses)?
The value was “well tolerated at the tested doses”.

What about the “survival until the end of the study” value ([6]; treated infected rabbits) of the same molecule?
The value was “all treated infected animals survived until the end of the study”.

And the “change of cardiac vegetations counts vs untreated controls” value ([7]; meropenem + 3 mg/kg GN370)?
Its value is −1.3 log10 CFU/g.

What about the “change of cardiac vegetations counts vs vehicle-treated controls” value ([7]; meropenem + 3 mg/kg GN370) of the same molecule?
Its value is −0.8 log10 CFU/g.

What about the “change of cardiac vegetations counts vs untreated controls” value ([7]; meropenem + 10 mg/kg GN370) of the same molecule?
The value was −1.1 log10 CFU/g.

What about the “change of cardiac vegetations counts vs vehicle-treated controls” value ([7]; meropenem + 10 mg/kg GN370) of the same molecule?
Its value is −0.5 log10 CFU/g.

And the “P. aeruginosa densities in kidney, spleen and lung vs meropenem alone” value ([7]; meropenem + GN370 at all doses)?
The value was −0.6 to−2.2 log10 CFU/g.

And the “P. aeruginosa densities in kidney, spleen and lung vs untreated control” value ([7]; meropenem + GN370 at all doses)?
The value was −2.0 to−3.6 log10 CFU/g.

What about the “P. aeruginosa densities in kidney, spleen and lung vs vehicle” value ([7]; meropenem + GN370 at all doses) of the same molecule?
Its value is −1.7 to−3.2 log10 CFU/g.

And the “CFU reduction in cardiac vegetation tissues” value [7, 9]?
The value was “about 1 log kill”.

And the “CFU reduction in kidney, spleen and lung tissues” value [7, 9]?
Its value is “about 3 log kill”.

And the “CFU reduction in cardiac vegetations” value ([7]; three days of GN370 at 10 mg/kg + 5 mg/kg meropenem, compared to both the start of treatment and a vehicle control)?
Its value is over 2 log CFU.

What about the “MIC of P. aeruginosa PA20” value [8] of the same molecule?
The value was 2 µg/mL.

And the “MIC against P. aeruginosa” value ([8]; GN370 value in rabbit serum)?
The value was 2 µg/mL.

Source: patent US20210324359A1, “USE OF GRAM-NEGATIVE LYSIN-ANTIMICROBIAL PEPTIDE (AMP) POLYPEPTIDE CONSTRUCTS IN TREATING ENDOCARDITIS” (priority 2020, published 2021)
